Measurements reported in US6949349.
Positions of bridges follow the written chain, without caps; N, C: chain ends. Non-standard residues stand in square brackets, D forms with d. No end group written: not given here. Aib = CC(C)(N)C(=O)O

T1: IGFBP-1 (human, UniProt P08833 26-259)
T1 construct: Biotinylated in the ELISA assays; also called rhIGFBP-1
T1 sequence (looked up): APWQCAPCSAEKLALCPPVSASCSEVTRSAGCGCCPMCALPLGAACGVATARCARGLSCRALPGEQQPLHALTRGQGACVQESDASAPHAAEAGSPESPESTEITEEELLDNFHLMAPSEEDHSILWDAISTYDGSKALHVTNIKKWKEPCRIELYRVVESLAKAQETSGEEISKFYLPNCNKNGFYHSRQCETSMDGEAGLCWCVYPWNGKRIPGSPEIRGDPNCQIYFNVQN

B1: bp1-02 (peptide)
peptide: SEVGCRAGPLQWLCEKYFG-NH2
modifications: disulfide 5-14; N-terminus assumed
SMILES: CC(C)C[C@@H]1NC(=O)[C@H](Cc2c[nH]c3ccccc23)NC(=O)[C@H](CCC(N)=O)NC(=O)[C@H](CC(C)C)NC(=O)[C@@H]2CCCN2C(=O)CNC(=O)[C@H](C)NC(=O)[C@H](CCCNC(=N)N)NC(=O)[C@@H](NC(=O)CNC(=O)[C@@H](NC(=O)[C@H](CCC(=O)O)NC(=O)[C@@H](N)CO)C(C)C)CSSC[C@@H](C(=O)N[C@@H](CCC(=O)O)C(=O)N[C@@H](CCCCN)C(=O)N[C@@H](Cc2ccc(O)cc2)C(=O)N[C@@H](Cc2ccccc2)C(=O)NCC(N)=O)NC1=O
notes: 19-mer variant of bp1-01
B2: bp1-01 R2A (peptide)
peptide: CAAGPLQWLCEKYFG
modifications: disulfide 1-10 (inferred)
notes: Ala-scan variant of bp1-01; termini and disulfide not restated
B3: bp1-01 Q7 aib (peptide)
peptide: CRAGPL[Aib]WLCEKYFG
modifications: disulfide 1-10
notes: Non-natural variant of bp1-01; X stands for aib
B4: bp1-01 Y13aib (peptide)
peptide: CRAGPLQWLCEK[Aib]FG
modifications: disulfide 1-10
notes: as for B3
B5: bp1-01 L6a (peptide)
peptide: CRAGP[dA]QWLCEKYFG
modifications: disulfide 1-10
notes: Non-natural variant of bp1-01 (a = D-alanine)
B6: bp1-01 E11aib (peptide)
peptide: CRAGPLQWLC[Aib]KYFG
modifications: disulfide 1-10
notes: as for B3
B7: bp1-01 L9aib (peptide)
peptide: CRAGPLQW[Aib]CEKYFG
modifications: disulfide 1-10
notes: as for B3
B8: bp1-01 G4a (peptide)
peptide: CRA[dA]PLQWLCEKYFG
modifications: disulfide 1-10
notes: as for B5
B9: bp1-01 R2a (peptide)
peptide: C[dA]AGPLQWLCEKYFG
modifications: disulfide 1-10
notes: as for B5
B10: bp1-01 K12aib (peptide)
peptide: CRAGPLQWLCE[Aib]YFG
modifications: disulfide 1-10
notes: as for B3
B11: bp1-01 F14aib (peptide)
peptide: CRAGPLQWLCEKY[Aib]G
modifications: disulfide 1-10
notes: as for B3
B12: bp1-01 W8aib (peptide)
peptide: CRAGPLQ[Aib]LCEKYFG
modifications: disulfide 1-10
notes: as for B3
B13: peptide-phage clone 4D3.9 (g8 display) (peptide, not shown: large carriers)
chain: ETVANCDCYMDLCLCYGSDR
modifications: cysteine pairing not given here; also: C-terminal fusion to linker and M13 g8p, phage-displayed
notes: Tested as a whole phage particle with polyvalent display
B14: peptide-phage clone 4C3.2 (g8 display) (peptide, not shown: large carriers)
chain: ELDGWVCIKVGEQNLCYLAE
modifications: not fully specified (C-terminus, bridges); cysteine pairing not given here; also: polyvalent display on phage particle
notes: as for B13
B15: peptide-phage clone 4D3.12 (g8 display) (peptide, not shown: large carriers)
chain: AEWAECWIAGDQLLCVGKDN
modifications: not fully specified (C-terminus, bridges); cysteine pairing not given here; also: polyvalent display on phage particle
notes: as for B13
B16: peptide-phage clone 4D3.8 (g8 display) (peptide, not shown: large carriers)
chain: SEEVCWPVAEWYLCNILGP
modifications: not fully specified (C-terminus, bridges); cysteine pairing not given here; also: polyvalent display on phage particle
notes: as for B13

biological target: T1, IGFBP-1; assay: ELISA plate assay: peptide inhibits IGFBP-1 binding to IGF-I; ratio to bp1-01 (wt)

Point of comparison: CKAGPLLWLCERFF (g8 bp1-01 selectant) [bp1027], “IC50 (mut)/IC50 (wt)” value 8.8 ratio. Against it:
- CKEGPLLWLCERFF (g8 bp1-01 selectant) [bp1030] — lower, 4.3 ratio
- B1 — lower, 0.37 ratio
- CRAGPLQWLCERFF (g8 bp1-01 selectant) [bp1028] — lower, 4.6 ratio
- CRAGPLQWLCEKFF (g8 bp1-01 selectant) [bp68] — lower, 0.39 ratio
- CREGPLQWLCERFF (g8 bp1-01 selectant) [bp1029] — lower, 1.7 ratio
- CRAGPLQWLCERYF (g8 bp1-01 selectant) [bp67] — lower, 0.34 ratio
- CAAGPLQWLCEKYF (g8 bp1-01 selectant) [bp1-15] — lower, 0.68 ratio

biological target: T2, IGFBP-3 (human, UniProt P17936 28-291); assay: BIAcore competition: peptide inhibits IGFBP-3 binding to immobilized IGF-I
T2 construct: also called rhIGFBP-3
T2 sequence (P17936 28-291 limits assumed): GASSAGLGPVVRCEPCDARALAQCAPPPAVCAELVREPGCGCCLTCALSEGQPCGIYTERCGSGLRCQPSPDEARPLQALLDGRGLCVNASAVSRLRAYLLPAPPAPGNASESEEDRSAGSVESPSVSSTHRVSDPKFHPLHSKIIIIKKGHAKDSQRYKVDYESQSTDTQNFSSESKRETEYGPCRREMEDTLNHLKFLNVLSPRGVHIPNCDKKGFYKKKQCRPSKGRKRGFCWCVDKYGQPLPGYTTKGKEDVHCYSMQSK

Point of comparison: ASEEVCWPVAEWYLCN (bp3-01-ox variant) [bp3-30], IC50 5.6 µM. Against it:
- GPETCWPVAEWYLCN (bp3-01-ox variant) [bp3-41] — within 1.5-fold, 4 µM
- ASEEVCWPVAEWYLCNMWGR [4d3.3] — the same, 5.6 µM
- SEEVCWPVAEWYLCN (also called BP15) [bp3-15] — 7.8-fold lower, 0.72 µM
- CWPVAEWYLCN [bp3-25 (SEQ ID NO:106)] — 8.2-fold higher, 46 µM
- EVCWPVAEWYLCN (bp3-01-ox variant) [bp3-27] — 2-fold lower, 2.8 µM
- EEVCWPVAEWYLCN (bp3-01-ox variant) [bp3-28] — within 1.5-fold, 5.4 µM

biological target: T1, IGFBP-1; assay: BIAcore competition (starred): peptide inhibits IGFBP-1 binding to IGF-I; ratio to bp1-01 (wt)

CRKGPLQWLCELYF (g8 bp1-01 selectant) [bp1-10] was tested, and the “IC50 (mut)/IC50 (wt)” value was 1.1 ratio.

biological target: T2, IGFBP-3; assay: BIAcore competition: peptide inhibits IGFBP-3 binding to IGF-I; ratio to bp3-01-ox

Point of comparison: EEVCWPVAEWYLCN (bp3-01-ox variant) [bp3-28], “IC50 (mut)/IC50 (wt)” value 2.7 ratio. Against it:
- GPETCWPVAEWYLCN (bp3-01-ox variant) [bp3-41] — lower, 2 ratio
- Ac-SEEVCWPVAEWYLCN-NH2 (disulfide 5-14 (inferred)) [bp3-40] — lower, 0.33 ratio
- SEEVCWPVAEWYLCN-NH2 (disulfide 5-14 (inferred)) [bp3-39] — lower, 0.33 ratio
- ASEEVCWPVAEWYLCN (bp3-01-ox variant) [bp3-30] — higher, 2.8 ratio
- ASEEVCWPVAEWYLCNMWGR [4d3.3] — higher, 2.8 ratio
- SEEVCWPVAEWYLCN (also called BP15) [bp3-15] — lower, 0.36 ratio
- CWPVAEWYLCN [bp3-25 (SEQ ID NO:106)] — higher, 23 ratio
- EVCWPVAEWYLCN (bp3-01-ox variant) [bp3-27] — lower, 1.4 ratio
- WPVAEWYLCN [bp3-24 (SEQ ID NO:107)] — higher, > 500 ratio

biological target: T1, IGFBP-1; assay: BIAcore competition: peptide inhibits IGFBP-1 binding to IGF-I; ratio to bp1-01 (wt)

Point of comparison: CRAGPAQWLCEKYFG (Ala-scan variant of bp1-01) [bp1-01 L6A], “IC50 (mut)/IC50 (wt)” value 30.3 ratio. Against it:
- CRAGPLQWLCAKYFG (Ala-scan variant of bp1-01) [bp1-01 E11A] — lower, 2.9 ratio
- CRAGPLAWLCEKYFG (Ala-scan variant of bp1-01) [bp1-01 Q7A] — lower, 0.7 ratio
- B2 — lower, 0.9 ratio
- CRAGPLQWACEKYFG (Ala-scan variant of bp1-01) [bp1-01 L9A] — higher, 33.2 ratio
- CRAGPLQWLCEKYAG (Ala-scan variant of bp1-01) [bp1-01 F14A] — lower, 6.2 ratio
- CRAGPLQWLCEKAFG (Ala-scan variant of bp1-01) [bp1-01 Y13A] — lower, 12.5 ratio
- CRAGPLQALCEKYFG (Ala-scan variant of bp1-01) [bp1-01 W8A] — lower, 7.4 ratio
- CRAGPLQWLCEAYFG (Ala-scan variant of bp1-01) [bp1-01 K12A] — lower, 7.9 ratio

biological target: T1, IGFBP-1; assay: biotinylated-IGFBP-1 ELISA: peptide inhibits IGFBP-1 binding to IGF-I; ratio to bp1-01 (wt)

Point of comparison: B10, “IC50 (mut)/IC50 (wt)” value 2 ratio. Against it:
- B3 — lower, 1.6 ratio
- B4 — higher, 7.1 ratio
- B5 — higher, 400 ratio
- B6 — lower, 1 ratio
- B7 — higher, 400 ratio
- B8 — lower, 0.6 ratio
- B9 — higher, 50 ratio
- B11 — higher, 3 ratio
- CR[dA]GPLQWLCEKYFG (disulfide 1-10 (inferred)) [bp1-01 A3a] — higher, 34 ratio
- B12 — higher, 24 ratio

biological target: T1, IGFBP-1; assay: BIAcore competition: peptide inhibits IGFBP-1 binding to IGF-II; ratio to bp1-01 (wt)

Point of comparison: CRAGPLQWLCAKYFG (Ala-scan variant of bp1-01) [bp1-01 E11A], “IC50 (mut)/IC50 (wt)” value 2.4 ratio. Against it:
- CRAGPLAWLCEKYFG (Ala-scan variant of bp1-01) [bp1-01 Q7A] — lower, 0.6 ratio
- B2 — lower, 0.9 ratio
- CRAGPAQWLCEKYFG (Ala-scan variant of bp1-01) [bp1-01 L6A] — higher, 34.7 ratio
- CRAGPLQWACEKYFG (Ala-scan variant of bp1-01) [bp1-01 L9A] — higher, 29.7 ratio
- CRAGPLQWLCEKYAG (Ala-scan variant of bp1-01) [bp1-01 F14A] — higher, 5.8 ratio
- CRAGPLQWLCEKAFG (Ala-scan variant of bp1-01) [bp1-01 Y13A] — higher, 14.6 ratio
- CRAGPLQALCEKYFG (Ala-scan variant of bp1-01) [bp1-01 W8A] — higher, 6.4 ratio
- CRAGPLQWLCEAYFG (Ala-scan variant of bp1-01) [bp1-01 K12A] — higher, 5.3 ratio

biological target: T3, recombinant human IGFBP-3 (human, UniProt P17936 28-291); assay: phage ELISA on IGFBP-3 plate, 50-fold phage dilution, with/without 100 nM IGF-I as competitor (FIG. 29)
T3 construct: also called rhIGFBP-3
Procedure: The plates were then washed ten times, as above, and a solution of rabbit anti-phage antibody mixed with a goat-anti-rabbit conjugate of horse radish peroxidase was added. After an incubation of 1 hour at room temperature, the plates were developed with a chromogenic substrate, o-phenylenediamine (Sigma). The reaction was stopped with addition of ½ volume of 2.5 M H_2SO_4. Optical density at 490 nm was measured on a spectrophotometric plate reader.
In each case, the phagemid clone was grown from a single colony overnight at 37° C. in a culture volume of 5 ml. The phage particles were precipitated and resuspended in 0.5 ml of PBS buffer.

T3 sequence (P17936 28-291 limits assumed): as the sequence (P17936 28-291 limits assumed) above

B13 and B14 cannot be ordered by “percent inhibition of phage binding by IGF-I” value: over 40% for the first, over 40% for the second.

B15 and B16 cannot be ordered by “percent inhibition of phage binding by IGF-I” value: over 40% for the first, over 40% for the second.
